# Measured values as given in patent US20040258656, “High affinity TGFbeta nucleic acid ligands and inhibitors” (published 2004).
# T1: TGFβ2 (transforming growth factor beta 2) (Homo sapiens, UniProt P61812 SEQ:1-112)
# T1 sequence: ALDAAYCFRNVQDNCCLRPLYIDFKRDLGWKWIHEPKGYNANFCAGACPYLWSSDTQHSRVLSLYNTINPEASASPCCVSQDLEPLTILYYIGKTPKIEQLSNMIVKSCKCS
# Target: T1, TGFβ2 (transforming growth factor beta …)
# Assay: filter
# Conditions: chain copies: 2 (inferred, homodimer)
row,Binder,binding signal
1,"biased clone 4 (ssRNA, 2'-F C and U) RNA: GGGAGGACGAUGCGGGGAGGGUAUUACAGAGUAUGUAUAGCUGUACUCCCAGACGACUCGCCCGA",1.4 x Kd of 21a-21
2,"biased clone 7 (ssRNA, 2'-F C and U) RNA: GGGAGGACGAUGCGGGAGGGUUAUUAUAGAGUCUGCAUAGCUAUACCCCCAGACGACUCGCCCGA",0.3 x Kd of 21a-21
3,"biased clone 13 (ssRNA, 2'-F C and U) RNA: GGGAGGACGAUGCGGUGUGAAUAUUAGAGAGUCUGUAUAGCUCUACCCCCAGACGACUCGCCCGA",0.2 x Kd of 21a-21
4,"biased clone 11 (ssRNA, 2'-F C and U) RNA: GGGAGGACGAUGCGGGCGGAUUAUCACAGAGUAUGUAUAGCUGUGCCGCCAGACGACUCGCCCGA",0.4 x Kd of 21a-21
5,"biased clone 25 (ssRNA, 2'-F C and U) RNA: GGGAGGACGAUGCGGGGGCGUUAUUACAGAGUCUGUAUAGCUGUAGCCCCAGACGACUCGCCCGA",1 x Kd of 21a-21
6,"biased clone 18 (ssRNA, 2'-F C and U) RNA: GGGAGGACGAUGCGGGUGGAUUAUUACAGCGUCUGUAUAUCUGUACCCCCAGACGACUCGCCCGA",1 x Kd of 21a-21
7,"biased clone 14 (ssRNA, 2'-F C and U) RNA: GGGAGGACGAUGCGGCGGGAUUAUUACUGAGUCUGUAUAGCAGUACCCCCAGACGACUCGCCCGA",0.4 x Kd of 21a-21
8,"biased clone 9 (ssRNA, 2'-F C and U) RNA: GGGAGGACGAUGCGGUGAGAGUAUUACGGAGUAUGUAUAGCCGUACCCCCAGACGACUCGCCCGA",0.3 x Kd of 21a-21
9,"biased clone 10 (ssRNA, 2'-F C and U) RNA: GGGAGGACGAUGCGGGGGCAUUAUUUCAGAGUCUGUAUAGCUGUAGCCCCAGACGACUCGCCCGA",0.3 x Kd of 21a-21
10,"biased clone 22 (ssRNA, 2'-F C and U) RNA: GGGAGGACGAUGCGGGUGGAUUAUUACAGAGUCUGUAUAGCUGUACCCCCAGACGACUCGCCCGA",1.1 x Kd of 21a-21
11,"biased clone 15 (ssRNA, 2'-F C and U) RNA: GGGAGGACGAUGCGGGUGGAAUAUUACGGAGUCUGUAUAGCCGUACUCCCAGACGACUCGCCCGA",0.4 x Kd of 21a-21
12,"biased clone 19 (ssRNA, 2'-F C and U) RNA: GGGAGGACGAUGCGGGCAGGUUAUUACAGAGUCUGUAUAGCUGUACUGCCAGACGACUCGCCCGA",1 x Kd of 21a-21
13,"biased clone 21 (ssRNA, 2'-F C and U) RNA: GGGAGGACGAUGCGGAGGGAUUAUUACAGAGUCUGUAUAGCUGUACCCCCAGACGACUCGCCCGA",0.7 x Kd of 21a-21
14,"biased clone 20 (ssRNA, 2'-F C and U) RNA: GGGAGGACGAUGCGGGGUAGAUAUCACUGAGUCUGUAUAGCAGUGUCCCCAGACGACUCGCCCGA",5.7 x Kd of 21a-21
15,"biased clone 17 (ssRNA, 2'-F C and U) RNA: GGGAGGACGAUGCGGGGGGACUAUUAGUGAGUCUGUAUAGCACUACCCCCAGACGACUCGCCCGA",0.8 x Kd of 21a-21
16,"biased clone 2 (ssRNA, 2'-F C and U) RNA: GGGAGGACGAUGCGGAGGCGUUAUUAGAGAGUCUGUAUAGCUCUAGCCCCAGACGACUCGCCGA",0.6 x Kd of 21a-21

# Target: T1, TGFβ2 (transforming growth factor beta …)
# Assay: filter
# Conditions: chain copies: 2 (inferred, homodimer)
# Remark: another data set of the same source
row,Binder,binding signal
1,"GGAGGUUAUUACAGAGUCUGUAUAGCUGUACUCCCC (ssRNA, 2'-F C and U) [21a-21(ML-94)]",0.5 x Kd of NX22284
2,"GGAGGUUAUUAGAGUCUAUAGCCUCC (ssRNA, 2'-F C and U) [21a-21(ML-102)]",1000 x Kd of NX22284
3,"GGAGGUUAUUACAGAGUCUGUAUAGC (ssRNA, 2'-F C and U) [21a-21(ML-97)]",1000 x Kd of NX22284
4,"GGUUAUUACAGAGUCUGUAUAGCUGUACUCC (ssRNA, 2'-F C and U; 3'-3' dT cap) [NX22303]",> 100 x Kd of NX22284
5,"GGAGGUUAUUACAGAGUCUGUAUAGCUGUA (ssRNA, 2'-F C and U) [21a-21(ML-96)]",1000 x Kd of NX22284
6,"GGAGGUUAUACAGAGUCUGUAUAGCUGUACUCC (ssRNA, 2'-F C and U) [21a-21(ML-118)]",1000 x Kd of NX22284
7,"GGAGAUAUUACAGAGUCUGUAUAGCUGUACUCC (ssRNA, 2'-F C and U) [21a-21(ML-134)]",10 x Kd of NX22284
8,"GGGGUUAUUAAGAGUCUGUAUAGCUUACCC (ssRNA, 2'-F C and U) [21a-21(ML-138)]",10000 x Kd of NX22284
9,"AGGUUAUUACAGAGUCUGUAUAGCUGUACUCC (ssRNA, 2'-F C and U; 3'-3' dT cap) [NX22302]",100 x Kd of NX22284
10,"GGAGGUUAUUACAAGUUGUAUAGCUGUACUCC (ssRNA, 2'-F C and U) [21a-21(ML-122)]",1000 x Kd of NX22284
11,"GGAGGUUAUUACAGAGUCUGUAUAGCUGUACUCC (ssRNA, 2'-F C and U) [21a-21(ML-95)]",1 x Kd of NX22284
12,"GGAGGUUAUUACAGAGUCUGUAUAGCUACUCC (ssRNA, 2'-F C and U) [21a-21(ML-116)]",1000 x Kd of NX22284
13,"GGGGUUAUUACAGAGUCUGUAUAGCUGUACCC (ssRNA, 2'-F C and U) [21a-21(ML-130)]",2 x Kd of NX22284
14,"GAGGUUAUUACAGAGUCUGUAUAGCUGUACUCC (ssRNA, 2'-F C and U; 3'-3' dT cap) [NX22301]",1 x Kd of NX22284
15,"GGAGGUUAUUACAGAGUCUGUAUAGCUGUAC (ssRNA, 2'-F C and U) [21a-21(ML-105)]",1000 x Kd of NX22284
16,"GGAGGUUAUUACAGAGUCUGUAUAGCUGUACUCCCCA (ssRNA, 2'-F C and U) [NX22285]",2 x Kd of NX22284
17,"GGGGUUAUUCAGAGUCUGUAUAGCUGACCC (ssRNA, 2'-F C and U) [21a-21(ML-136)]",10000 x Kd of NX22284
18,"GGAGGUUAUUACGAGUCUGUAUAGCGUACUCC (ssRNA, 2'-F C and U) [21a-21(ML-132)]",1000 x Kd of NX22284
19,"GGAGGUUAUUACAGAGUCUGUAUAGCGUACUCC (ssRNA, 2'-F C and U) [21a-21(ML-114)]",1000 x Kd of NX22284
20,"GGAGGUUAUUACAGAGUCUGUAUAGCUGUCUCC (ssRNA, 2'-F C and U) [21a-21(ML-115)]",1000 x Kd of NX22284
21,"GGAGGUUAUUAGAGUCUAUAGCUGUACUCC (ssRNA, 2'-F C and U) [21a-21(ML-101)]",1000 x Kd of NX22284
22,"GGAGGUUAUUACAGAUCUGUAUAGCUGUACUCC (ssRNA, 2'-F C and U) [21a-21(ML-120)]",1000 x Kd of NX22284
23,"GGAGGUUAUUACAGAGUUGUAUAGCUGUACUCC (ssRNA, 2'-F C and U) [21a-21(ML-128)]",1000 x Kd of NX22284
